Publication PMC6882875

Tests used:
Experiment in all cases: EMSA
Conditions in all cases: EMSA: binding buffer stock 80 mM Tris-HCl pH 8.0, 20 mM MgCl2, 2 mM DTT, 4 mM EDTA, 400 mM KCl, 40% glycerol (final dilution not stated); poly(dI-dC) …
[1] = test system: MalR1 (Bifidobacterium breve UCC2003)
[2] = test system: AraQ (Bifidobacterium breve UCC2003)
[3] = test system: T1, AraQ (Bifidobacterium breve UCC2003), ORF:c628000b
T1 sequence: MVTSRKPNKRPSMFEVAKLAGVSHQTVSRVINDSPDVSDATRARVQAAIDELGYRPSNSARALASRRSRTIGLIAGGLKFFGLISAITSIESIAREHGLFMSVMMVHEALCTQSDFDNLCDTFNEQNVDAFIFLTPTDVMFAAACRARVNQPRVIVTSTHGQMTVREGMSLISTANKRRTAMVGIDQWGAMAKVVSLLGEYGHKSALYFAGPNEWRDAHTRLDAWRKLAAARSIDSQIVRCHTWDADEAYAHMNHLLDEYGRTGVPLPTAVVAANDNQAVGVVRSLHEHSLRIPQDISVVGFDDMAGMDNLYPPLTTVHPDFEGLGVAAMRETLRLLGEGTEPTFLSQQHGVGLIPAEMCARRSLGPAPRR

[4] = test system: T2, MalR1 (Bifidobacterium breve UCC2003), ORF:82221dfa
T2 sequence: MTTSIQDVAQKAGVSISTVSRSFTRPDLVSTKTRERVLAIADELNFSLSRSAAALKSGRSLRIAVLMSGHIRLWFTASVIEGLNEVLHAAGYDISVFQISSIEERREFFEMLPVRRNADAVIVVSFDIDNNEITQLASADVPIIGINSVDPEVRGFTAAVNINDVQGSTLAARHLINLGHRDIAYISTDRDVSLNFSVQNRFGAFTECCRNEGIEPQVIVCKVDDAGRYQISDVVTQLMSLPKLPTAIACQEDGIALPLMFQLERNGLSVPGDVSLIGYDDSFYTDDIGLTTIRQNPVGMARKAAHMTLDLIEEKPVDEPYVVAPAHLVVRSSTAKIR

| Substance | binding signal [1] [% bound] | binding signal [2] [% bound] | binding signal [3] | binding signal [4] |
| --- | --- | --- | --- | --- |
| Bbr_1420 promoter | < 15 | 0 |  |  |
| Bbr_1658 promoter | 0 | 0 |  |  |
| Bbr_1659 promoter | 0 | 0 |  |  |
| Bbr_1841 promoter | 0 | < 15 |  |  |
| Bbr_1894 (PTS) promoter | < 15 |  |  |  |
| CATACGCCTCTCGCTTTCGTCATTGGGCCGACGTCACTGCCGGCACAAAACCGCGACACATGTATGCGTCTTGGTCAACGCTGAATCGTCTCATCACTGAAATGATTTAACGTTTAATCACTTGCGTGATTCATAATATATCGTTTAATCACAGGGGTCAATCAGCGTGTCGAGAGCGTTAACAATCGCGTCCTAACGCCATTACCAGCACATCAGAAACACAATATGGCACAAAAAAAGACAAAATATTGGCGGCGAAGGACTATTGAGC (double strand) [rbsA1 promoter] |  |  | 0 % bound | binds |
| CGAATGCCATATCCGTCTCCTCCTTGCGGCTTACTGCAGCGTTAGAAATGCACAATTCAAATGTACCCTTCTTATAACCGACGCCCGCAAGGTCGTGTCATGCGTCAAACTCTTTTACTGCAGACATTTTTGAGGCTTCTGCTGTTTTCGTGGGCTAGCTGACTGGTTCCGGTAGTCGGATGTCGAGTCCGCCGCATCTGAGCATGATC (double strand) [Bbr_1420 promoter] |  |  | 0 % bound | < 15 % bound |
| CGACAGCTTCCTTGCCATGCTGGCCCTCCTTTATTTTCCAACCCTCGGTTTTCCGCATTGTGCAATCTGCATTGTTTGCCTTGCGGAATCTTAGGAAATTATTTTCCTAAAATGTTTTCTTGAGATAAGATTATAGGACGCCAACGTCAGTGTCAACACGGCGGGTCGAGGGTCGCACAACCCGGACCGAACGGCCCACAATGGCGACGTAGCAAGGAACAGAACGCTACGCCCTTGTACACTGATACAGAGGAAAACAGGCAGGAGGGGAGACATGAACATCAGGGACATCGCACGC (double strand) [Bbr_1841 promoter] |  |  | < 15 % bound | 0 % bound |
| CTTCGCCACGTCATACACCGTTGCCCTACGCATGATTCCTACTTTAATCGATTCCGGAGGTCAGCACACGTTCGACCTGAATCTAAAAAAAGTTTTAGTGGCTTTCCTGTCAATCTCGCATGCATACTTCAGGTTACGGGCGCAGCACCCAATAATGGGTACCGCGCCTTAATGACCGCTACACGAGCAGTCTCAGCAACTGGTAAAGCTGCCATAGGCTGCGCACGTTG (double strand) [Bbr_1659 promoter] |  |  | 0 % bound | 0 % bound |
| GATGAGTGCGCGTGAGAAGAAGAAGGCTGCCGTAGAAGCGAAATAATCGGTGCATGGCCGCTCTGCAGATATATGGAGGGCGGTCTGCGAACCGCCGGGAATGGGTTGCCAATCCCGGCGGTTTGTGTATCCGTGGCGCAGTACAGTCGTAAAGGAAGGCAAGGAGGACAACCATGGCGGAAGGTGTACCGAAGTATATTGCGGTTAGGGACAATCTTCGCCAGCGTG (double strand) [gntR promoter] |  |  | 0 % bound | 0 % bound |
| GCGTTCTATCCTTGCACTGAGCCACGAAAGACGGCATTGTGCAAACGATGGCATACTGTGGGATGCGGAATGACAAGACATGTGATACTCTCTGACTGAGAACGTATGCAACAACTGTCTGCCAACGCTGTTACAGAGAGTTCATGCACACGTTTATGCGACGATACCAATCGCGCGGCATAATAAGCACGGGCACTTATCCCGGAAGGAAAGTCAGAATG (double strand) [glgP1 promoter] |  |  | binds | 0 % bound |
| GCTCGCTTTTGCCATGGCAACCTCGCTCATCAACAGTGGATAACAATCCCGCTCAAAAGACAACGTTATCATACCTAAGCGAGCAACATGCACGCCACGCTGTCTATTTAGAAGTGCAACGCCCCTGTTCGTCGGCTAATTCTTGCAGTTCGTCGGTGAATGCCCCGGGCCCCCGGATTCAACTTGTAAGTGCAACGGCTGGTTTCGG (double strand) [malR2 promoter] |  |  | binds | 0 % bound |
| GGTCAAGCTCATCGTGCGGGGCAGCTGTGGGTGCTGATTATTTCTTGAAGAAGGCTAAATAAGGCTTTTGAGACCTCCTGCAGGGGAGTCACTGTTGATGCTGTTTCGTCGTGTCGAATCGGTTCGCGAGTTGACAAACAAAAAACTATGCGCTTAAATATTAATCACAATCTACGCGGTTAGATTGTTGAGAAGTAACAGTTCAAGGAGGAACGAGGAATGAAGCGAAGCATGTTCAAGATGGCGACTGCCATCATCGCCAGTGCGGCTATGCTGACCAG (double strand) [Bbr_1658 promoter] |  |  | 0 % bound | 0 % bound |
| GGTTGTCGTAATCCTCGGTGGAAGGACCGATGGTGTCTACGATCTTGGCTTTACGCATGAATGCCTGCCTATTCTTGTTCTTTTTTGGTTCGAGGCGCGATTGCCTCACTTGCCGCAGCCCAGTCTACTAGCGCAGACCGGCTCATGACAAGTTTATTCCCCGGTGTGTTGTGAGCGCTCACACTGTTGCGCCGATTGGGTTTTGAGGGGTTGATTTCCCTATGATTTCAGGCCTTCTCAGCG (double strand) [pyk promoter] |  |  | binds | binds |
| agl3 promoter | 0 | 0 |  |  |
| cldE promoter |  | 0 |  |  |
| cldR promoter | 0 | 0 |  |  |
| glgP1 promoter | 0 |  |  |  |
| glgP2 promoter | 0 | 0 |  |  |
| gntR promoter | 0 | 0 |  |  |
| malE promoter | 0 |  |  |  |
| malG2 (F2) promoter | 0 |  |  |  |
| malQ promoter | 0 | < 15 |  |  |
| malR2 promoter | 0 |  |  |  |
| malR3/apuB intergenic region | < 15 | < 15 |  |  |
| malR5/malE2 intergenic region | < 15 | < 15 |  |  |
| nrdH promoter | 0 |  |  |  |
| rbsA1 promoter |  | 0 |  |  |
